Experiment [1] deals with T1, human CD23b (full length cDNA, expressed on transfected COS or CHO cells) (human) (UniProt P06734).
T1 sequence (looked up): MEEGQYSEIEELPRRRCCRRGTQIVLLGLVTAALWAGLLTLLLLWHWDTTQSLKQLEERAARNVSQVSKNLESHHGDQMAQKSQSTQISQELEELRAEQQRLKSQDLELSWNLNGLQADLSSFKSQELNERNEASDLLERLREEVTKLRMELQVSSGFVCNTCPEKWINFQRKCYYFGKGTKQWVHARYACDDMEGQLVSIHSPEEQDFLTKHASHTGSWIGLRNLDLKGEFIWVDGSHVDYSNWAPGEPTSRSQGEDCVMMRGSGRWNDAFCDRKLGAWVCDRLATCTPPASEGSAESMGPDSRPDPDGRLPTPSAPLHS
Nature of the experiment: cell-based or functional assay.

Another experiment addresses T2, ADAM9-Fc fusion protein (Mus musculus, UniProt Q61072).
T2 construct: the complete extracellular domain of ADAM9 (aa 1-698); made in house; host or cells: HEK293-EBNA1 cells (pCEP4), purified on Protein A Sepharose
T2 sequence (Q61072 206-698 limits assumed): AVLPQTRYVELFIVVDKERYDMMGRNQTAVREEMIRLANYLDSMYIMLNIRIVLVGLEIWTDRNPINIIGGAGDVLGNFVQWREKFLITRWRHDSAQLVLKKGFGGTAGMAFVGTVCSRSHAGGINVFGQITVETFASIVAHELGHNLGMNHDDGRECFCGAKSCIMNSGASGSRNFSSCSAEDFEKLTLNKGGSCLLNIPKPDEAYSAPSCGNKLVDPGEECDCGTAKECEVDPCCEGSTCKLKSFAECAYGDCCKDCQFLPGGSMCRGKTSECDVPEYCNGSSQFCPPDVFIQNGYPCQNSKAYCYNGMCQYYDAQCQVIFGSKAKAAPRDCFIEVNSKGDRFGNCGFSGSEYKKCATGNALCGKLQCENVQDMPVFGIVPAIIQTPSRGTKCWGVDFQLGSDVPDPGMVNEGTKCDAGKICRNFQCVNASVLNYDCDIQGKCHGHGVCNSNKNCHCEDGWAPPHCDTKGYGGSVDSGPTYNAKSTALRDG
Nature of the experiment: Cleavage of oxidized insulin B chain by soluble ADAM9-Fc (MALDI-TOF). In kind it is biochemical. As to conditions: 2 mM inhibitor. The source says: The estimated cleavage sites (marked by an ↓), determined by mass spectrometry (MALDI-TOF), are indicated.

Experiment [2] deals with oxidized human insulin B chain (human). Nature of the experiment: cell-based or functional assay.
Chain of oxidized human insulin B chain (human) (peptide, as listed by the source): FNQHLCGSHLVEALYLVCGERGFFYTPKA
In experiment [3] the target is T1, human CD23b (full length cDNA, expressed on transfected COS or CHO cells) (human). Nature of the experiment: cell-based or functional assay. This is another data set of the same source.

Where two headings read alike, the source gives them in different places.

“ADAM9ACT (truncated cytoplasmic domain), transfected into COS cells (from UniProt Q61072 30-845) (enzyme)” had a decrease in surface fluorescence intensity of CD23 (FACS, cotransfected COS cells, 48 h) in experiment [1] of 35 to 40%. Regarding `c1cnc2c(c1)ccc1cccnc12` [o-phenanthroline], the “inhibition of cleavage of the insulin B chain” value against ADAM9-Fc fusion protein is given as “completely inhibited”. Molecule “soluble ADAM9-Fc fusion protein (ADAM9 aa 1-698 fused to human IgG1 Fc)” yielded a peptide cleavage (MALDI-TOF) (cleavage sites) in experiment [2] of 2.

B1: ADAM9 (full length cDNA, transfected into COS-7 or CHO AA8 cells) (enzyme, murine, UniProt Q61072 30-845, looked up)
chain: GRPDLEQTVHLSSYEIITPWRLTRERREALGPSSQQISYVIQAQGKQHIIHLERNTDLLPNDFVVYTYDKEGSLLSDHPNVQSHCHYRGYVEGVQNSAVAVSACFGLRGLLHLENASFGIEPLHNSSHFEHIFYPMDGIHQEPLRCGVSNRDTEKEGTQGDEEEHPSVTQLLRRRRAVLPQTRYVELFIVVDKERYDMMGRNQTAVREEMIRLANYLDSMYIMLNIRIVLVGLEIWTDRNPINIIGGAGDVLGNFVQWREKFLITRWRHDSAQLVLKKGFGGTAGMAFVGTVCSRSHAGGINVFGQITVETFASIVAHELGHNLGMNHDDGRECFCGAKSCIMNSGASGSRNFSSCSAEDFEKLTLNKGGSCLLNIPKPDEAYSAPSCGNKLVDPGEECDCGTAKECEVDPCCEGSTCKLKSFAECAYGDCCKDCQFLPGGSMCRGKTSECDVPEYCNGSSQFCPPDVFIQNGYPCQNSKAYCYNGMCQYYDAQCQVIFGSKAKAAPRDCFIEVNSKGDRFGNCGFSGSEYKKCATGNALCGKLQCENVQDMPVFGIVPAIIQTPSRGTKCWGVDFQLGSDVPDPGMVNEGTKCDAGKICRNFQCVNASVLNYDCDIQGKCHGHGVCNSNKNCHCEDGWAPPHCDTKGYGGSVDSGPTYNAKSTALRDGLLVFFFLIVPLVAAAIFLFIKRDELRKTFRKKRSQMSDGRNQANVSRQPGDPSISRPPGGPNVSRPPGGPGVSRPPGGPGVSRPPGGPGVSRPPPGHGNRFPVPTYAAKQPAQFPSRPPPPQPKISSQGNLIPARPAPAPPLYSSLT
For the molecule B1, in experiment [3], the amount of s-CD23 in culture supernatant (ELISA), ADAM9 expression On against Off lay within 2 to 3 times; the decrease in surface bound CD23 (flow cytometry MFI, CHO clone 3, tetracycline removed) lay in the range of 40 to 50%; the decrease in surface fluorescence intensity of CD23 (FACS, cotransfected COS cells, 48 h) was 35 to 40%.

For the origin of these results see patent US20030091568A1, “Inhibitors for the formation of soluble human CD23” (priority 2000, published 2003).
